Drawing on PMC5718999, this text covers apparent height above OTS of the KIBD-CaM pattern and increase of the height of the CaM layer for 1 substance.

Experiment [1] has as its target genetically engineered calmodulin (CaM) with cysteine on N-terminus (UniProt P0DP23). Description: atomic force microscopy (height of the immobilised protein pattern); CaM immobilised by cysteine-Hg-SH coupling on MUTMS patterns on OTS-coated silicon; soaked 10 min in CaM KI binding domain solution at 4 °C, rinsed with buffer; imaged in air, ac mode, 75% relative humidity, 25 °C; height from topography histograms.

Experiment [2] has the same target. Description: atomic force microscopy (height of the immobilised protein pattern); CaM immobilised by cysteine-Hg-SH coupling on MUTMS patterns on OTS-coated silicon; soaked 10 min in 1 g mL^-1 CaM KI binding domain solution at 4 °C, rinsed with buffer; imaged in air, ac mode, 75% relative humidity, 25 °C; height from topography histograms.

For the substance “Calmodulin-dependent protein kinase I (299-320) binding domain (from UniProt Q63450 299-320) (peptide)”, the apparent height above OTS of the KIBD-CaM pattern in experiment [1] is 4.2 nm. The increase of the height of the CaM layer in experiment [2] was 11.3 Å.
